Source: publication PMC3668751, “Assembly of the Yeast Exoribonuclease Rrp6 with Its Associated Cofactor Rrp47 Occurs in the Nucleus and Is Critical for the Controlled Expression of Rrp47*” (The Journal of Biological Chemistry, 2013)

B1: GST-Rrp6NT (domain or fragment, S. cerevisiae, UniProt Q12149 1-211, looked up)
chain: MTSENPDVLLSRVINVVRAASSLASQDVDFYKNLDRGFSKDLKSKADKLADMANEIILSIDEHHESFELKEEDISDLWNNFGNIMDNLLEMSDHSLDKLNCAINSKSRGSDLQYLGEFSGKNFSPTKRVEKPQLKFKSPIDNSESHPFIPLLKEKPNALKPLSESLRLVDDDENNPSHYPHPYEYEIDHQEYSPEILQIREEIPSKSWDDS
notes: Rrp6, S. cerevisiae, N-terminal region (Rrp6NT, holds the PMC2NT domain); The preparation held some proteolytic fragments of the GST fusion; also called Rrp6NT domain; N-terminal region of Rrp6; source: E. coli, co-lysed with cells expressing His6-Rrp47; complex purified (Ni-NTA, glutathione-Sepharose, Superdex 200)
B2: Recombinant full-length His6-Rrp47 (natural protein, S. cerevisiae, UniProt P38801 1-184, looked up)
chain: MEDIEKIKPYVRSFSKALDELKPEIEKLTSKSLDEQLLLLSDERAKLELINRYAYVLSSLMFANMKVLGVKDMSPILGELKRVKSYMDKAKQYDNRITKSNEKSQAEQEKAKNIISNVLDGNKNQFEPSISRSNFQGKHTKFENDELAESTTTKIIDSTDHIRKASSKKSKRLDKVGKKKGGKK
notes: Rrp47 (also known as Lrp1), S. cerevisiae, full-length recombinant protein; On its own a non-globular homodimer (theoretical homodimer mass 50,920 Da with the tag); One copy stands in the heterodimer with Rrp6NT; also called His-Rrp47; Lrp1; source: for the complex, co-lysed with cells expressing Rrp6NT
B3: C-terminally truncated Rrp47NT protein (domain or fragment, S. cerevisiae, UniProt P38801 1-120, looked up)
chain: MEDIEKIKPYVRSFSKALDELKPEIEKLTSKSLDEQLLLLSDERAKLELINRYAYVLSSLMFANMKVLGVKDMSPILGELKRVKSYMDKAKQYDNRITKSNEKSQAEQEKAKNIISNVLD
notes: Rrp47 (Lrp1), S. cerevisiae, N-terminal domain; the discussion gives it as the first 120 amino acid residues; it probably carries a His tag like the full-length protein; also called N-terminal domain of Rrp47; Rrp47NT polypeptide

Tests used:
[1] = target: B2; test: pull-down + SEC; E. coli cells expressing His6-Rrp47 or GST-Rrp6NT lysed together; Ni-NTA, then glutathione-Sepharose, then Superdex 200; 50 mM HEPES pH 7.6, 300 mM NaCl; ratio from densitometry of the Coomassie-stained SDS-PAGE of the peak fraction
[2] = target: the molecule itself; test: AUC; sedimentation velocity, 38,000 rpm, 20 °C, 50 mM Hepes pH 7.6, 500 mM NaCl, 0.25 and 1 mg/ml, absorbance at 280 nm, SEDFIT
[3] = target: the molecule itself; test: cross-linking; 0.01% glutaraldehyde on ice, ~40 µM protein, 50 mM HEPES pH 7.6, 300 mM NaCl; SDS-PAGE and Western blot

Binder: B1
stoichiometry N [1]: 0.8 Rrp6NT per Rrp47

Binder: B2
stoichiometry N [2]: 2

Binder: B3
stoichiometry N [3]: 2
